Where two headings read alike, the source gives them in different places. Primed or numbered codes have the meaning given here. Where no end group is shown, it is not given here. [ ]: non-standard residue; d: D form. Fc(3) = Fc: non-antigen-binding fragment of an antibody from proteolytic digestion of a whole antibody (vehicle); mPEG 5K = methoxy-PEG 5 kDa coupled via the N-terminal cysteine; Fc = immunoglobulin Fc domain fused to the peptide (peptibody); Fc″ = Fc domain of the peptibody fusion

Sequences and labels used below:
B1: mouse Ang-2 (protein)
chain: YSNFRKSVDSTGRRQYQVQNGPCSYTFLLPETDSCRSSSSPYMSNAVQRDAPLDYDDSVQRLQVLENILENNTQWLMKLENYIQDNMKKEMVEIQQNVVQNQTAVMIEIGTSLLNQTAAQTRKLTDVEAQVLNQTTRLELQLLQHSISTNKLEKQILDQTSEINKLQNKNSFLEQKVLDMEGKHSEQLQSMKEQKDELQVLVSKQSSVIDELEKKLVTATVNNSLLQKQQHDLMETVNSLLTMMSSPNSKSSVAIRKEEQTTFRDCAEIFKSGLTTSGIYTLTFPNSTEEIKAYCDMDVGGGGWTVIQHREDGSVDFQRTWKEYKEGFGSPLGEYWLGNEFVSQLTGQHRYVLKIQLKDWEGNEAHSLYDHFYLAGEESNYRIHLTGLTGTAGKISSISQPGSDFSTKDSDNDKCICKCSQMLSGGWWFDACGPSNLNGQYYPQKQNTNKFNGIKWYYWKGSGYSLKATTMMIRPADF
B2: human Ang-1 (protein)
chain: SNQRRSPENSGRRYNRIQHGQCAYTFILPEHDGNCRESTTDQYNTNALQRDAPHVEPDFSSQKLQHLEHVMENYTQWLQKLENYIVENMKSEMAQIQQNAVQNHTATMLEIGTSLLSQTAEQTRKLTDVETQVLNQTSRLEIQLLENSLSTYKLEKQLLQQTNEILKIHEKNSLLEHKILEMEGKHKEELDTLKEEKENLQGLVTRQTYIIQELEKQLNRATTNNSVLQKQQLELMDTVHNLVNLCTKEGVLLKGGKREEEKPFRDCADVYQAGFNKSGIYTIYINNMPEPKKVFCNMDVNGGGWTVIQHREDGSLDFQRGWKEYKMGFGNPSGEYWLGNEFIFAITSQRQYMLRIELMDWEGNRAYSQYDRFHIGNEKQNYRLYLKGHTGTAGKQSSLILHGADFSTKDADNDNCMCKCALMLTGGWWFDACGPSNLNGMFYTAGQNHGKLNGIKWHYFKGPSYSLRSTTMMIRPLDF

The target of assay [1] is T1, human Ang-2 (human, UniProt O15123).
T1 chain: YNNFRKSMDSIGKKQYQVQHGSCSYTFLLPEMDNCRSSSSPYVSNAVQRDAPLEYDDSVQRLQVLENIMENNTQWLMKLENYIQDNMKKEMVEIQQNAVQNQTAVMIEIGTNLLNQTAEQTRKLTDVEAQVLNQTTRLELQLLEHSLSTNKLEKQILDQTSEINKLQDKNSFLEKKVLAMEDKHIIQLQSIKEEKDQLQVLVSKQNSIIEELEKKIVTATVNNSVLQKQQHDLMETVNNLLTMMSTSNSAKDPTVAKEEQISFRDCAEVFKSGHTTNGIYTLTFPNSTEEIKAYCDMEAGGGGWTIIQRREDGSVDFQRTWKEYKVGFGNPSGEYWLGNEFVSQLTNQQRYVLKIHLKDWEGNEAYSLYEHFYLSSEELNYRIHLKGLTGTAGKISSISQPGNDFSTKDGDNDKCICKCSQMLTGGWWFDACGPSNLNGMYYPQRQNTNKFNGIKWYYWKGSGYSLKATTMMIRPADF
Description: SPR.

In the next assay the target is T2, cAng-2 (UniProt O15123).
T2 chain: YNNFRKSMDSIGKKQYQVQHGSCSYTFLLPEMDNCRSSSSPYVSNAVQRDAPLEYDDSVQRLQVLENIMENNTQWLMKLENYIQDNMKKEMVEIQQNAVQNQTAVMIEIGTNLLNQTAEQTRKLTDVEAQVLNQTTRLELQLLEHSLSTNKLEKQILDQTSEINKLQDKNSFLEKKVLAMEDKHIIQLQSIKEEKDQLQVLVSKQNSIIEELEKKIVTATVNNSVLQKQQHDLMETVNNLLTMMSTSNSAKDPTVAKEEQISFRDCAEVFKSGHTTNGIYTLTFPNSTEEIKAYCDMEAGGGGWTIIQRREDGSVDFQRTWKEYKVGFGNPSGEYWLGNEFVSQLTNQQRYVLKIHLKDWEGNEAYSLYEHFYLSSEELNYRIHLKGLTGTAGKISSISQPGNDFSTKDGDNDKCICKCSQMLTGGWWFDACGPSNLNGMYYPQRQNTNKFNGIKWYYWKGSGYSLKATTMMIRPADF
In words: competition ELISA vs Tie-2. A general note: In an ELISA, binding on a coated surface is turned into a signal by an enzyme label.

In a further assay the target is T3, mouse Ang-1 (mouse, UniProt O08538).
T3 chain: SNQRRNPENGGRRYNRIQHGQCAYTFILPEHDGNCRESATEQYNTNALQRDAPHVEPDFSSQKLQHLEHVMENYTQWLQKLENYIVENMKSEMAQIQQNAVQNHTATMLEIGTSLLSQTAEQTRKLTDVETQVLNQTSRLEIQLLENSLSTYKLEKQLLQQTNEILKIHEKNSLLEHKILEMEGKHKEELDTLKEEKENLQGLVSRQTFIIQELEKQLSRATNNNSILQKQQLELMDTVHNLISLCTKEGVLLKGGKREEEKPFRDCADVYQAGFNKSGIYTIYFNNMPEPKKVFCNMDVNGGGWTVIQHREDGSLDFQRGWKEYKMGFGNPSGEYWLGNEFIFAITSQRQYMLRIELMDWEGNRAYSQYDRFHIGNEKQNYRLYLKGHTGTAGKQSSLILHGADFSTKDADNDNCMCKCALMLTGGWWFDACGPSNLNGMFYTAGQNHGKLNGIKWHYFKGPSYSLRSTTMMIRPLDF
In words: competition ELISA vs Tie-2.

Assay [2] concerns the target B2. In words: competition ELISA vs Tie-2.
In the next assay the target is T4, rat Ang-2 (rAng-2) (rat, UniProt O35462).
T4 chain: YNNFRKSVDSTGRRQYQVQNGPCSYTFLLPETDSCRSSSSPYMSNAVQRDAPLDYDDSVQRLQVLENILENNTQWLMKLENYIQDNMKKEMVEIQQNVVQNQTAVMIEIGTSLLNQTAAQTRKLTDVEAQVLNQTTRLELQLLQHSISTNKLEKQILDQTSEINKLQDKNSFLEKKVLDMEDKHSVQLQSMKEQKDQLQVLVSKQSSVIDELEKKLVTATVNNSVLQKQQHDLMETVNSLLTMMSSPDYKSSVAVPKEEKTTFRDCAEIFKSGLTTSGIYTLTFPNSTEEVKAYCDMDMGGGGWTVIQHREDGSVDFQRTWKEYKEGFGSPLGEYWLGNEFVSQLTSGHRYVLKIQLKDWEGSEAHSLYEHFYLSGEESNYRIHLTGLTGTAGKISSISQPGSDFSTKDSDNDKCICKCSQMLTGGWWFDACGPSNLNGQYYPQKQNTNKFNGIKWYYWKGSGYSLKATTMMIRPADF
In words: competition ELISA vs Tie-2.

The target of assay [3] is T1, human Ang-2. In words: competition ELISA vs Tie-2.
The target in assay [4] is B1. In words: competition ELISA vs Tie-2.
Assay [5] concerns the target T1, human Ang-2. In words: competition ELISA vs Tie-2.
In assay [6] the target is Negative Control Peptibody 4883. Description: ELISA.
For assay [7] the target is unchanged. In words: ELISA. This is another data set of the same source.
Assay [8] addresses B1. In words: SPR. Background: In SPR one partner is held on a chip, and binding of the other changes the refractive index at the surface.
For assay [9], the target named is T1, human Ang-2. Description: SPR.
Assay [10] concerns the target B1. Description: competition ELISA vs Tie-2.
The target in assay [11] is B2. In words: competition ELISA vs Tie-2.
Assay [12] concerns the target T1, human Ang-2. Description: competition ELISA vs Tie-2.
The target of assay [13] is T1, human Ang-2. In words: competition ELISA vs Tie-2.

Regarding MGAQHTFQPLDELEETLYYQWLYDQLLEGGGGG-{Fc″} [L1-21 (N)], binding in the assay with human Ang-2 [1] was characterised by a dissociation constant (Kd) of 0.24 nM. Besides, the IC50 (commonly the concentration that gives 50% inhibition) with cAng-2 is 0.608 nM; with mouse Ang-1 it was above 1000 nM; in the assay with human Ang-1 [2], above 1000 nM; with rat Ang-2 (rAng-2), 0.204 nM; with human Ang-2 [3] it was 0.17 nM; in the assay with mouse Ang-2 [4] it was 0.249 nM. In the assay with human Ang-2 [5], the IC50 was 0.179 nM.
In the case of B1, the binding result in [6] is recorded as “no binding”.
For B2, the binding result in assay [7] is “no binding”.
Consider MGAQKFNPLDELEETLYEQFTFQQLEGGGGG[Fc(3)] [L1 (N)], for which the Kd – broadly, the concentration at which binding is half-saturated – with mouse Ang-2 [8] is 0.42 nM; in the assay with human Ang-2 [9], 3.1 nM. In addition, the IC50 in the assay with mouse Ang-2 [10] was 11 nM; with human Ang-1 [11], above 1000 nM; in the assay with human Ang-2 [12] it was 6 nM.
In the case of MGAQTNFMPMDDLEQRLYEQFILQQGLEGGGGG-Fc [L1-7 (N)], in the assay with human Ang-2 [1], the affinity, expressed as Kd, was 0.24 nM. Besides, the IC50 is 0.108 nM with cAng-2; above 1000 nM with mouse Ang-1; above 1000 nM with human Ang-1 [2]; 0.035 nM with rat Ang-2 (rAng-2); 0.03 nM with human Ang-2 [3]; 0.063 nM with mouse Ang-2 [4]. Also, the IC50 in the assay with human Ang-2 [5] is 0.046 nM.

B3: PEG3.4K(L1-7 Peptide)2 (peptide)
chain: CGGGGGAQTNFMPMDDLEQRLYEQFILQQGLE
modifications: not fully specified (residue 1); printed as C-GGGGG-AQ-TNFMPMDDLEQRLYEQFILQQG-LE; also: dimer linked by PEG 3.4K via N-terminal Cys
Take B3: the IC50 with human Ang-2 [13] was 0.058 nM.

B4: Con4 (C) (peptide)
chain: M[Fc]GGGGGAQQEECEWDPWTCEHMLE
modifications: not fully specified (bridges); printed as M-Fc-GGGGGAQQEECEWDPWTCEHMLE; cysteine pairing not given here; also: Fc fusion domain at position 2
In turn, B4 displayed an equilibrium dissociation constant (Kd) in the assay with human Ang-2 [1] of 0.38 nM. Also, the IC50 in the assay with mouse Ang-2 [10] stood at 0.3 nM; with cAng-2, 0.54 nM; with mouse Ang-1 it was 300 nM; with human Ang-1 [2] it was 200 nM; with rat Ang-2 (rAng-2), 0.236 nM; with mouse Ang-2 [4], 0.289 nM. Further, the values for the IC50 with human Ang-2 [5] and in the assay with human Ang-2 [12] were 0.197 nM and 0.2 nM, respectively.

B5: TN12-9 (N) (peptide)
chain: MGAQFDYCEGVEDPFTFGCDNHLEGGGGGX
modifications: not fully specified (C-terminus, bridges); printed as MGAQ-FDYCEGVEDPFTFGCDNHLE-GGGGG-Fc; cysteine pairing not given here
On to B5, for which the figures for the Kd with mouse Ang-2 [8] and with human Ang-2 [9] were 0.32 nM and 8.2 nM, respectively. In addition, the concentration for half-maximal inhibition (IC50) is 7.7 nM with mouse Ang-2 [10], above 1000 nM with human Ang-1 [11] and 21 nM with human Ang-2 [12].
Molecule C(mPEG 5K)GGGGGAQTNFMPMDDLEQRLYEQFILQQGLE [mPEG5K-(L1-7 Peptide)] came in with an IC50 in the assay with human Ang-2 [13] of 11.7 nM.

Source of the values: patent US7205275 (dated 2007).
